Source: article PMC3531251, “Yeast importin-β is required for nuclear import of the Mig2 repressor” (BMC Cell Biology, 2012)

B1: GST-Mig2nls1 fusion protein (natural protein)
chain: not shown
notes: Held on glutathione-Sepharose beads in the pull-downs; also called Mig2nls1-GST; MIG2K32AK33AR37A; source: E. coli BL21(DE3) pLysS, purified on glutathione-Sepharose
B2: GST-Mig2 fusion protein (natural protein)
chain: not shown
notes: Mig2 of Saccharomyces cerevisiae, PCR fragment cloned in the SalI site of pGEX-4T-1; also called Mig2-GST; pGEX/MIG2; source: E. coli BL21(DE3) pLysS, purified on glutathione-Sepharose

Molecular target: T1, Kap60 (importin-α), purified from E. coli (S. cerevisiae, UniProt Q02821 1-542)
T1 construct: also called purified Kap60; GST-Kap60 (before thrombin); source: E. coli BL21(DE3) pLysS, purified on glutathione-Sepharose, released with thrombin
T1 sequence (looked up): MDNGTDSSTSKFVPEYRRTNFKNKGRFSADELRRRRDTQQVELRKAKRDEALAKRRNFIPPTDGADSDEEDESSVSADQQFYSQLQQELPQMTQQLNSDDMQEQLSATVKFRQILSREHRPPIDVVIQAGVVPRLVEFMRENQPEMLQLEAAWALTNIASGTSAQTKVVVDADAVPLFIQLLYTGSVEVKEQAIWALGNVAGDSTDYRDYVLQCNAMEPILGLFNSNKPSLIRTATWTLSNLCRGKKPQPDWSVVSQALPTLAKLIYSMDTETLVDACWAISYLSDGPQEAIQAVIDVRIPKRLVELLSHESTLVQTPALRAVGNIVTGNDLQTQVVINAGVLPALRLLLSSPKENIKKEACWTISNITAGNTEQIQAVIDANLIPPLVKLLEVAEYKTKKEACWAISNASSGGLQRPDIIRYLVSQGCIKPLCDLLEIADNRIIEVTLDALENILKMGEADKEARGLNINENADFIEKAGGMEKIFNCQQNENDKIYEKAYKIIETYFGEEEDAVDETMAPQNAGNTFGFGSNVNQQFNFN
Test: pull-down; GST fusion on glutathione-Sepharose incubated with purified Kap60 and/or Kap95 (thrombin-released), no Gsp1; 1 h at 4°C in PBS; blot with anti-Kap60 or anti-Kap95
Conditions: both partners purified

| Binder | binding result |
| --- | --- |
| B1 | binds |
| B2 | binds |
